Experimental data: US20150018228A1, “ENZYME DETECTION BY MICROFLUIDICS” (priority 2011, published 2015)

Experiments:
Assay type in all cases: biochemical, Plasmodium falciparum
[1] = test system: pfTopI; assay: Cleavage-ligation assay with radio-labeled DNA substrates in absence or presence of camptothecin; conditions: 60 μM CPT, duplex OL62/OL63, 20 min at 37° C.
Protocol: Detection of PfTopI activity using radio-labeled DNA substrates: DNA cleavage reactions were carried out by incubating 20 nM duplex OL37/OL56 or OL62/OL63 with 500 fmol of pfTopI or hTopI in the absence or presence of 60 μM CPT for 20 min at 37° C. in 10 mM Tris (pH 7.5), 5 mM MgCl2, and 5 mM CaCl2 in a final volume of 20 μl. After the 20 min incubation, reactions were stopped with 0.5% (w/v) SDS. Samples were subjected to ethanol precipitation, resuspended in 10 μl of 1 mg/ml trypsin and incubated at 37° C. for 30 min. Reaction products were analyzed by denaturing polyacrylamide gel electrophoresis following standard procedures, and radioactive bands were visualized by PhosphorImaging.

[2] = test system: pfTopI; assay: RCA-based biosensor (REEAD) circularization of oligonucleotide substrates by purified pfTopI
Protocol: As shown in FIG. 1A and FIG. 4, in contrast to its human counterpart, pfTopI is able to cleave close to DNA ends with high efficiency. […] To address this possibility, purified pfTopI was incubated with each of the substrates Su2-Su6 (FIG. 1B) and the products analysed using the RCA based detection system as schematically outlined in FIG. 1C. The sequence of the substrates Su4, Su5, and Su6 was modified to match the sequence that was cleaved with high efficiency in substrate XX.
Based on this, five different oligonucleotides with potential of being circularized specifically by pfTopI cleavage-ligation were designed. These oligonucleotides (PfTop1(S1-S5)) all folded into a hairpin structure containing a probe- and a primer-annealing sequence in the single-stranded loop and a potential pfTopI recognizable sequence at the end of the double-stranded stem region (FIG. 1b). […] To allow comparative quantification of signals generated in different reactions, a known concentration of control-circle with a unique probe-annealing sequence was added to the reaction mixtures before RCA and resulting RCPs visualized using a green-fluorescent probe. […]
(§1) The 5′-amine-conjugated primer was coupled to CodeLink Activated Slides (SurModics) according to the manufacturer's description. […] Quantification of pfTopI specific signals was performed as previously described^1.

[3] = test system: pfTopI; assay: REEAD with HRP-mediated colorimetric readout, purified pfTopI; conditions: purified pfTopI circularizing S1
From the text: To investigate if the Plasmodium-specific REEAD could be adapted to simple colorimetric readout, suitable for low-resource settings without compromising sensitivity, an additional enzymatic step was introduced to the assay by coupling streptavidin-fused HRP to biotinylated RCPs as described by Yan, J. et al. An on-nanoparticle rolling-circle amplification platform for ultrasensitive protein detection in biological fluids. Small 6, 2520-2525 (2010). HRP oxidizes colorless tetramethylbenzidine to a blue-colored form, detectable to the naked eye or by spectrophotometric measurements. This, of course, is at the expense of the possibility of multiplexing since RCPs originating from different circles cannot be distinguished. […] This, however, imposed the advantage of preventing competition between S(TopI) and pfTopI(S1) for pfTopI, as discussed above. The two readout formats were compared by reacting pfTopI(S1) with increasing dilutions of extracts from blood sample #2 followed by microscopic visualization of RCPs or by spectrophotometric measurement of HRP substrate conversion. As evident from FIG. 23 colorimetric readout increased sensitivity of REEAD by a factor two compared to microscopic readout. […]

[4] = test system: pfTopI; assay: REEAD in nuclear extract from HEK293T cells with or without spike-in pfTopI; conditions: signals only with spike-in pfTopI
Protocol: The use of Su2 for detecting pfTopI activity in human cell extracts in the RCA-based biosensor setup was also verified. […] As a control for successful RCA and probe annealing a circularized control circle was added to each sample before annealing to the primer coated slide. […] As expected, comparative levels of green and blue spots corresponding to RCPs from […] and control circles, respectively, could be observed in both samples (FIG. 2A).
The specificity of pfTopI(S1) for pfTopI in crude biological samples was addressed using nuclear extract from human HEK293T cells with or without spike-in pfTopI as a model for Plasmodium infection. […] Consequently, green signals observed in FIG. 22b, right panel, originated from hTopI and pfTopI activity in combination where pfTopI(S1) and S(TopI) competed for reaction by pfTopI at the expense of sensitivity.
Human embryonic kidney HEK293T cells were cultured in Dulbecco's Modified Eagle Medium (GIBCO) supplemented with 10% fetal bovine serum (FBS) (GIBCO), 100 units/mL penicillin and […] streptomycin (Invitrogen). Cells were incubated in a humidified incubator (5% CO2/95% air atmosphere at 37° C.). […]
as §1

CC[C@@]1(O)C(=O)OCc2c1cc1n(c2=O)Cc2cc3ccccc3nc2-1 [camptothecin]
effect on ligation product formation by pfTopI [1]: ligation product is only observed upon incubation of the substrate with pfTopI in the absence of camptothecin

B1: pfTopI(S1): hairpin oligonucleotide sensor circularized by pfTopI, SEQ ID NO: 8 (nucleic acid)
chain: TCTAGAAAGTATAGGAACTTCGAACGACTCAGAATGACTGTGAAGATCGCTTATCCTCAATGCACATGTTTGGCTCCCATTCTGAGTCGTTCGAAGTTCCTATACTTT
modifications: chemistry not fully specified
circularization efficiency by pfTopI, substrate signals relative to control circle signals ([2]; purified pfTopI, compared among the tested substrates): the most efficient sensor of pfTopI
detection of pfTopI, spectrophotometric measurement of HRP reaction ([3]; FIG. 27): 2 aM
detection of pfTopI, direct visual detection of HRP reaction ([3]; data not shown): 200 aM
specificity for pfTopI in crude human cell extract [4]: specificity of pfTopI(S1) for pfTopI even on a background of human nucleus content

B2: S(TopI): self-folding oligonucleotide substrate for human topoisomerase I, SEQ ID NO: 25 (nucleic acid)
chain: AGAAAAATTTTTAAAAAAACTGTGAAGATCGCTTATTTTTTTAAAAATTTTTCTAAGTCTTTTAGATCCCTCAATGCTGCTGCTGTACTACGATCTAAAAGACTTAGA
modifications: listed as DNA, chemistry not fully specified
circularization (conversion to closed circles) by pfTopI ([2]; purified recombinant pfTopI, RCA and fluorescent probe readout): circularizes S(TopI)
